In the supplement of paper PMC12338614:

B1: library; numbered along this chain (parent)
chain: MEVVDPQQLGMFTEGELMSVGMDTFIHRIDSTEVIYQPRRKRAKLIGKYLMGDLLGEGSYGKVKEVLDSETLCRRAVKILKKKKLRRIPNGEANVKKEIQLLRRLRHKNVIQLVDVLYNEEKQKMYMVMEYCVCGMQEMLDSVPEKRFPVCQAHGYFCQLIDGLEYLHSQGIVHKDIKPGNLLLTTGGTLKISDLGVAEALHPFAADDTCRTSQGSPAFQPPEIANGLDTFSGFKVDIWSAGVTLYNITTGLYPFEGDNIYKLFENIGKGSYAIPGDCGPPLSDLLKGMLEYEPAKRFSIRQIRQHSWFRKKHPPAEAPVPIPPSPDTKDRWRSMTVVPYLEDLHGADEDEDLFDIEDDIIYTQDFTVPGQVPEEEASHNGQRRGLPKAVCMNGTEAAQLSTKSRAEGRAPNPARKACSASSKIRRLSACKQQ

Variants of: B1
Assay: STK11 functional score (HeLa growth suppression), rescaled enrichment; synonymous median = 1, nonsense median = 0 (normalised score)
Settings: with HeLa; variant type: missense
Outline: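 In HeLa, Bxb1 integrated POPCode codon-randomised libraries of codon-optimised STK11 at an AAVS1 landing pad; three regions were each transfected three times. Integrants, marked as BFP-negative and mCherry-positive, were FACS-sorted 4–5 days after electroporation and expanded for about two weeks before tiled gDNA amplicons were sequenced on NextSeq (~2 million reads per tile). Each functional score is a post/pre-selection log ratio corrected to wild type, rescaled to the synonymous and nonsense medians, and merged across codons and replicate transfections, with error estimated by bootstrapping.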

STK11 functional score of substitutions, site by site:
L353: V 1.42, T 1.45, N 1.56, I 1.19, R 1.57, S 1.6, Y 1.4, W 1.12, P 1.12
I356: E 1.62, T 1.58, N 1.45, W 1.66, L 1.15, A 1.5, S 0.889, P 1.6, G 1.45, H 1.51, F 1.15, Q 1.58, R 1.19, Y 1.12, D 1.27, M 1.21, V 1.46
T363: H 1.17, I 0.824, D 1.45, N 1.03, E 1.6, L 1.17, Q 1.52, P 1.34, R 1.14, W 1.19, Y 1.18, V 1.2, S 1.34, F 0.261, C 1.33, G 1.58, A 0.828, M 1.59
D359: L 1.53, C 1.14, T 1.57, A 1.4, Y 1.13, I 0.856, P 1.5, V 1.05, M 1.6, R 1.52, E 0.865, S 1.15, H 1.21, W 1.07, G 1.36
D358: E 0.693, A 1.27, P 0.725, L 1.56, I 1.15, N 0.776, G 1.08, R 1.34, V 1.46, W 1.46, C 1.53, H 0.325, Q 1.49, S 1.47
I361: W 1.62, S 1.46, M 1.09, E 1.52, K 0.624, H 1.21, A 1.47, R 1.53, N 1.27, L 1.31, G 0.895, F 0.984, D 1.5, T 1.58, Q 0.616, V 1.6, Y 0.312
E357: P 1.58, M 1.52, C 1.36, H 1.6, Q 1.13, I 1.56, S 1.52, T 1.56, G 1.47, W 0.957, A 1.12, R 1.36, D 0.56, Y 1.39, V 1.33, F 0.965, L 1.54
F354: Y 1.31, L 1.12, N 1.6, H 1.34, P 1.42, K 1.57, C 0.742, T 0.37, S 1.34, V 1.3, R 1.53, Q 1.61, G 1.09, I 1.32, M 1.51, A 1.54, E 1.45, W 0.138
I360: Y 1.52, V 1.49, A 1.6, W 0.807, D 0.487, S 1.11, N 1.11, L 1.13, R 0.694, F 0.809, G 1.44, K 1.31, M 0.866
D355: A 0.938, E 1.02, I 1.18, H 1.11, G 1.63, R 1.43, C 1.31, W 1.57, Q 1.28, V 1.14, L 1.58, P 1.53, S 1.48
Y362: M 1.61, S 1.25, A 1.42, N 1.47, V 1.32, H 1.44, F 1.05, E 0.99, I 1.56, R 1.39, P 1.58, T 1.6, L 1.17, G 1.15, W 1.31, C 1.33
